From PMC11906848, “Rational engineering of a thermostable α-oxoamine synthase biocatalyst expands the substrate scope and synthetic applicability” (Communications Chemistry, 2025) come the findings set out here.

The target of series [1] is T1, ThAOS (Thermus thermophilus, UniProt Q5SHZ8).
T1 construct: gene TTHA1582; recombinant in E. coli BL21(DE3), pET28a, TEV-cleavable N-terminal His6 tag; homodimer; active site includes V79 of the other monomer
Briefly: UV-vis spectroscopy of purified holoenzyme. It counts as binding. As to conditions: covalent; internal aldimine.
Target sequence in this assay (Q5SHZ8 whole entry): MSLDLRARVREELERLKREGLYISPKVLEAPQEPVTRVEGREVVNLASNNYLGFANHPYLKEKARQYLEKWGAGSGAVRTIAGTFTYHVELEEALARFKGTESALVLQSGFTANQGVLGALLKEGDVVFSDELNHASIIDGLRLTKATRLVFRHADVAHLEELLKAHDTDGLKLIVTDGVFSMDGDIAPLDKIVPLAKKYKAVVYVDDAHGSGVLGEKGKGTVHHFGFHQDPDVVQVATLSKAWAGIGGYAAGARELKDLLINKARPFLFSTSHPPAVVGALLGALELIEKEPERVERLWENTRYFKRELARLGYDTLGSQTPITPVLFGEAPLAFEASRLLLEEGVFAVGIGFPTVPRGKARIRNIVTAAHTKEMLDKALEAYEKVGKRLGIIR

In series [2] the target is T1, ThAOS. Description: X-ray crystal structure (crystal soak), […] Å; UV-vis. It counts as binding. The conditions noted are these: covalent PLP:L-Pen thiazolidine adduct; carboxylate chelated by Arg366.
The target of series [3] is T1, ThAOS. Description: DTNB assay of CoASH release. It counts as biochemical. As to conditions: 16 mM L-Aba; 1 mM acetyl-CoA; HEPES pH 7.5; 50 °C.
Target sequence in this assay (Q5SHZ8 whole entry): as above
For series [4], the target named is T1, ThAOS. Description: UV-vis titration of PLP spectrum. It counts as binding. The conditions noted are these: 0-16 mM; external aldimine and some quinonoid formation.
Target sequence in this assay (Q5SHZ8 whole entry): as above
Substrate in series [5]: C[C@H](N)C(=O)O
Description: purified protein. As to conditions: acetyl-CoA co-substrate, HEPES pH 7.5, 50 °C.

Substrate in series [6]: N[C@@H](CO)C(=O)O
Briefly: purified protein. As to conditions: acetyl-CoA co-substrate, HEPES pH 7.5, 50 °C.

Substrate in series [7]: CC[C@H](N)C(=O)O
Description: DTNB assay of CoASH release. It counts as biochemical, Thermus thermophilus. The conditions noted are these: acetyl-CoA co-substrate, HEPES pH 7.5, 50 °C. From the text:
(§1) DTNB assay of CoASH release on ThAOS | catalytic efficiency (kcat/KM) for all four original amino acid substrates was improved substantially

Substrate in series [8]: NCC(=O)O
Description: DTNB assay of CoASH release. It counts as biochemical, Thermus thermophilus. As to conditions: acetyl-CoA co-substrate, HEPES pH 7.5, 50 °C.
Excerpt: as §1

Substrate in series [9]: CC[C@H](N)C(=O)O
Briefly: DTNB assay of CoASH release. It counts as biochemical, Thermus thermophilus. The conditions noted are these: acetyl-CoA co-substrate, HEPES pH 7.5, 50 °C. The source holds these as a separate data set.

Substrate in series [10]: NCC(=O)O
Briefly: DTNB assay of CoASH release. It counts as biochemical, Thermus thermophilus. The conditions noted are these: acetyl-CoA co-substrate, HEPES pH 7.5, 50 °C. This is another data set of the same source.

Turning to `Cc1ncc(COP(=O)(O)O)c(C=O)c1O` [PLP, pyridoxal 5’-phosphate], the “UV-vis spectroscopy of purified holoenzyme” value at ThAOS [1] is on record as “corresponding to the tautomeric forms of the PLP-bound internal aldimines”.
For the molecule `CC(C)(S)[C@H](N)C(=O)O` [L-Pen, L-penicillamine], the “X-ray crystal structure (crystal soak), 1.5 Å; UV-vis” value on ThAOS [2] is recorded as “The structure of ThAOS V79A PLP:L-Pen complex (PDB: 8S1Y)”.
For the molecule `CC[C@H](N)C(=O)O` [L-Aba], the “DTNB assay of CoASH release” value on ThAOS [3] is “original set of four amino acid substrates (L-Aba, L-Ala, Gly and L-Ser)”.
For the molecule `C[C@H](N)C(=O)O` [L-Ala], at ThAOS [4], the “UV-vis titration of PLP spectrum” value is “L-Ala binding leads to a small amount of PLP: L-Ala quinonoid formation”.

B1: ThAOS (Thermus thermophilus HB8; V78A) (protein)
chain: MSLDLRARVREELERLKREGLYISPKVLEAPQEPVTRVEGREVVNLASNNYLGFANHPYLKEKARQYLEKWGAGSGAARTIAGTFTYHVELEEALARFKGTESALVLQSGFTANQGVLGALLKEGDVVFSDELNHASIIDGLRLTKATRLVFRHADVAHLEELLKAHDTDGLKLIVTDGVFSMDGDIAPLDKIVPLAKKYKAVVYVDDAHGSGVLGEKGKGTVHHFGFHQDPDVVQVATLSKAWAGIGGYAAGARELKDLLINKARPFLFSTSHPPAVVGALLGALELIEKEPERVERLWENTRYFKRELARLGYDTLGSQTPITPVLFGEAPLAFEASRLLLEEGVFAVGIGFPTVPRGKARIRNIVTAAHTKEMLDKALEAYEKVGKRLGIIR
notes: recombinant in E. coli BL21(DE3), pET28a, TEV-cleavable N-terminal His6 tag; homodimer; active site includes V79 of the other monomer
B1: the Michaelis constant (Km) (as a rule, the substrate concentration at which the rate is half of its maximum) is 1.59 ± 0.25 mM in the series “purified protein [5]”, 2.52 ± 0.30 mM in the series “purified protein [6]”, 3.12 ± 0.35 mM in [7] and 8.36 ± 1.73 mM in series [8]. Also, the catalytic constant (kcat) (as a rule, the maximal rate divided by the concentration of active sites) in the series “purified protein [5]” was 1.23 ± 0.05 s⁻¹; in the series “purified protein [6]”, 3.81 ± 0.13 s⁻¹; in series [7], 2.25 ± 0.08 s⁻¹; in [8], 3.89 ± 0.32 s⁻¹.

B2: ThAOS (Thermus thermophilus HB8; V78G) (protein)
chain: MSLDLRARVREELERLKREGLYISPKVLEAPQEPVTRVEGREVVNLASNNYLGFANHPYLKEKARQYLEKWGAGSGAGRTIAGTFTYHVELEEALARFKGTESALVLQSGFTANQGVLGALLKEGDVVFSDELNHASIIDGLRLTKATRLVFRHADVAHLEELLKAHDTDGLKLIVTDGVFSMDGDIAPLDKIVPLAKKYKAVVYVDDAHGSGVLGEKGKGTVHHFGFHQDPDVVQVATLSKAWAGIGGYAAGARELKDLLINKARPFLFSTSHPPAVVGALLGALELIEKEPERVERLWENTRYFKRELARLGYDTLGSQTPITPVLFGEAPLAFEASRLLLEEGVFAVGIGFPTVPRGKARIRNIVTAAHTKEMLDKALEAYEKVGKRLGIIR
notes: as for B1
For B2, the Km worked out at 0.83 ± 0.15 mM in series [9], 9.52 ± 1.91 mM in series [10], 2.46 ± 0.05 mM in “purified protein [5]” and 4.28 ± 0.96 mM in “purified protein [6]”. For the same molecule, the kcat in series [9] turned out to be 1.09 ± 0.04 s⁻¹; in [10], 5.12 ± 0.43 s⁻¹; in “purified protein [5]”, 2.39 ± 0.15 s⁻¹; in the series “purified protein [6]”, 5.74 ± 0.43 s⁻¹.
